Results taken from patent US6290951A, “Alteration of the cell cycle in vivo, and particularly for inducing apoptosis of tumor cells” (Alfacell Corporation, priority 1998, dated 2001).
Square brackets hold non-standard residues; d marks the D form. Peptide text beside a SMILES is read from it. Nle = CCCC[C@H](N)C(=O)O

Tests used:
[1] = system: MDA-MB-231 human breast carcinoma; test: MTT assay, MDA-MB-231 cells
[2] = system: DU-145 human prostate carcinoma; test: MTT assay, DU-145 cells
[3] = system: A-549 human lung carcinoma; test: MTT assay, A-549 cells
proteasome = conditions: Proc Natl Acad Sci USA 94:855-860, 1997; cited from earlier work
HL-60 tumor cells = conditions: proliferating HL-60 tumor cells; background art; cited from earlier work
[4] = A-549 cells, 10 μM LLnL with 0.1 to 1.0 μg/mL ranpirnase

With `COc1cccc2c1C(=O)c1c(O)c3c(c(O)c1C2=O)C[C@@](O)(C(=O)CO)C[C@@H]3O[C@H]1C[C@H](N)[C@H](O)[C@H](C)O1` [doxorubicin, reference compound] the “effect of adding doxorubicin on cell growth or cell viability” value ([1]; MDA-MB-231 cells, ranpirnase plus 0.1 μg/mL doxorubicin plus 15 μM LLnL versus ranpirnase plus LLnL) was “did not significantly decrease”.

For `CC(=O)N[C@@H](CC(=O)O)C(=O)N[C@@H](CCC(=O)O)C(=O)N[C@H](C(=O)N[C@H](C=O)CC(=O)O)C(C)C` [Ac-DEVD-cho, N-acetyl-L-aspartyl-L-glutamyl-L-valinyl-L-aspartal, reference compound], the “increase of viability of cells versus LLnL alone” value ([2]; DU-145 cells treated with LLnL, without ranpirnase, Ac-DEVD-cho 50 μpM) was “approximately 4 fold” and the “increase of viability of cells” value ([2]; DU-145 cells treated with ranpirnase and 25 μpM LLnL, Ac-DEVD-cho 50 μpM) was 2- to 3 fold.

For `CC(=O)N[C@@H](CC(C)C)C(=O)N[C@H](C(=O)N[C@H](C=O)Cc1ccccc1)C(C)C` [LVP, N-acetyl-leucinyl-valinyl-phenylalaninal, reference compound], the “augmentation of the anti-tumor activity of ranpirnase” value ([3]; A-549 cell line, peptide aldehyde added to ranpirnase) was “augmented” and the “augmentation of the anti-tumor activity of ranpirnase” value ([2]; DU-145 cell line, peptide aldehyde added to ranpirnase) was “augmented”.

In the case of `CSCC[C@@H](C=O)NC(=O)[C@H](CC(C)C)NC(=O)[C@H](CC(C)C)NC(C)=O` [LLM, N-acetyl-leucinyl-leucinyl-methioninal, reference compound] (Ac-Leu-Leu-Met-aldehyde), the “inhibition of the activity of proteasome” value (proteasome) is listed as “does not significantly inhibit” and the “effect on growth and viability versus untreated controls” value ([1]; MDA-MB-231 cells, 25 μM LLM alone) is listed as “no significant effect”.

In the case of `CCCC[C@@H](C=O)NC(=O)[C@H](CC(C)C)NC(=O)[C@H](CC(C)C)NC(C)=O` [LLnL, N-acetyl-leucinyl-leucinyl-norleucinal] (Ac-Leu-Leu-[Nle]-aldehyde), the cell cycle arrest (HL-60 tumor cells) is listed as “arrested the HL-60 cells in the G1 phase”.

B1: ranpirnase: USAN generic name of the pharmaceutical described in U.S. Pat. No. 5,559,212, known by the registered trademark ONCONASE (protein, UniProt P22069 1-104, looked up)
Protein P-30: QDWLTFQKKHITNTRDVDCDNIMSTNLFHCKDKNTFIYSRPEPVKAICKGIIASKNVLTTSEFYLSDCNVTSRPCKYKLKKSTNKFCVTCENQAPVHFVGVGSC
In the case of B1, the “interaction of ranpirnase and LLnL” value ([3]; A-549 cell line) is reported as “synergistically”, the “anti-tumor activity of ranpirnase combined with LLnL versus each single agent (Newman-Keuls)” value ([3]; A-549 cells) is reported as “significantly greater” and the “effect of the combination versus ranpirnase alone” value [3, 4] is reported as “greater than the effect of ranpirnase alone”. The “interaction of ranpirnase and LLnL” value [3, 4] was “not synergistic”, the “interaction of ranpirnase and LLnL” value ([3]; A-549 cells, higher concentrations (15 to 35) μM of LLnL) was “synergistic” and the “mean ED50 value for ranpirnase” value ([3]; A-549 cells, in combination with 10 μM LLnL) was 1.356 µg/mL. The “mean ED50 value for ranpirnase” value ([3]; A-549 cells, in combination with 15 μM LLnL) was 0.640 µg/mL, the “mean ED50 value for ranpirnase” value ([3]; A-549 cells, in combination with 25 μM LLnL) was 0.060 µg/mL and the “mean ED50 value for ranpirnase” value ([3]; A-549 cells, in combination with 35 μM LLnL) was “less than 0.001 μg/mL”. The “mean ED50 value for ranpirnase” value ([3]; A-549 cells, ranpirnase alone) was 3.944 µg/mL, the “interaction of ranpirnase and LLnL” value ([2]; DU-145 cell line) was “synergistically” and the “anti-tumor activity of ranpirnase combined with LLnL versus each single agent (Newman-Keuls)” value ([2]; DU-145 cells) was “significantly greater”. The “interaction of ranpirnase with LLnL” value ([2]; DU-145 cells, all concentrations of ranpirnase, 10 to 25 μM LLnL) was “synergistic”, the “ED50 value for ranpirnase” value ([2]; DU-145 cells, combined with 10 μM LLnL) was 1.231 µg/mL and the “ED50 value for ranpirnase” value ([2]; DU-145 cells, combined with 15 μM LLnL) was 0.001 µg/mL. For the same molecule, the “ED50 value for ranpirnase” value ([2]; DU-145 cells, combined with 25 μM LLnL) was under 0.001 µg/mL, the “ED50 value for ranpirnase” value ([2]; DU-145 cells, ranpirnase alone) was 42.276 µg/mL and the “interaction of ranpirnase and LLnL” value ([1]; MDA-MB-231 cell line) was “synergistically”. For the same molecule, the “anti-tumor activity of ranpirnase combined with LLnL versus each single agent (Newman-Keuls)” value ([1]; MDA-MB-231 cells) was “significantly greater”, the “activity of combination of ranpirnase and LLM versus ranpirnase alone” value ([1]; MDA-MB-231 cells, 25 μM LLM) was “no significant difference” and the “decrease of mean ED50 value for ranpirnase” value ([1]; MDA-MB-231 cells, additional treatment with 25 μM LLM) was “approximately two-fold”. For the same molecule, the “decrease of mean ED50 value for ranpirnase versus ranpirnase alone” value ([1]; MDA-MB-231 cells, in combination with 0.1 μg/mL (approximately 0.17 μM) doxorubicin) was 2.2 fold, the “mean ED50 value for ranpirnase” value ([1]; MDA-MB-231 cells, in combination with 10 μM LLnL) was 0.037 µg/mL and the “mean ED50 value for ranpirnase” value ([1]; MDA-MB-231 cells, in combination with 15 μM LLnL) was 0.022 µg/mL. For the same molecule, the “mean ED50 value for ranpirnase” value ([1]; MDA-MB-231 cells, in combination with 25 μM LLnL) was 0.001 µg/mL, the “interaction of ranpirnase with LLnL” value ([1]; MDA-MB-231 cells, ranpirnase 0.1 to 10.0 μg/mL, LLnL 5 to 25 μM (particularly 10 to 25 μM)) was “synergistically” and the “mean ED50 value for ranpirnase” value ([1]; MDA-MB-231 cells, ranpirnase alone) was 1.434 µg/mL.
